For 3 molecules, Kd results are on record in patent US20180155451A1 (published 2018).

Like-named read-outs stand apart in the source and are kept apart here.

Test in all cases: SPR (Biacore), antibody captured on chip, FcγR extracellular domain as analyte, kinetic analysis
For orientation: In SPR one partner is held on a chip, and binding of the other changes the refractive index at the surface.

For assay [1], the target named is T1, FcgRIa extracellular domain with C-terminal His tag (human, UniProt P12314 16-292).
T1 construct: extracellular domain; Expressed in FreeStyle293 cells; used as analyte in Biacore; also called FcγRIa; FcγRI; not shown: His tag attached to the C terminus
T1 sequence (P12314 16-292): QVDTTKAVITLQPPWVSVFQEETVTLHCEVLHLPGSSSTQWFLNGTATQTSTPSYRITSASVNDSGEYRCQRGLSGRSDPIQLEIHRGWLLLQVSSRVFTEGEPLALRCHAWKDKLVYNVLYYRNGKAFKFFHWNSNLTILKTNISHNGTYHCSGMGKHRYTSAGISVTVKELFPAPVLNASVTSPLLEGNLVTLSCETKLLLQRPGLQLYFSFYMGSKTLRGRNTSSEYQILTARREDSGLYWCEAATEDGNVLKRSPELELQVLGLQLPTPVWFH
Here is the method: (§1) Analysis of interaction between obj ective antibody and the FcγR was carried out using Biacore T100 (GE Healthcare), Biacore T200, Biacore A100, and Biacore 4000. HBS-EP+ (GE Healthcare) was used as the running buffer, and the measurement temperature was set to 25° C. Chips produced by immobilizing the antigen peptide by the amine coupling method to a Series S sensor Chip CM5 (GE Healthcare), chips produced by allowing preliminarily biotinylated antigen peptides to interact with and immobilize onto a Series S Sensor Chip SA (certified) (GE Healthcare), chips produced by immobilizing Protein L (ACTIGEN, BioVision) to Series S Sencor Chip CM5 (GE Healthcare), or chips produced by immobilizing Protein A/G (Thermo Scientific) to Series S Sencor Chip CM5 (GE Healthcare) were used. Antibodies of interest were captured onto these chips, and allowed to interact to each FcγR diluted with running buffer. To regenerate and repeatedly use the chip, the antibodies captured onto the chip were washed off by reacting 10 mM glycine-HCl, pH 1.5.

Assay [2] deals with T2, FcgRIIa R extracellular domain with C-terminal His tag (human, UniProt P12318 34-217).
T2 construct: extracellular domain; also called FcγRIIa R; FcγRIIa type R; not shown: His tag attached to the C terminus
T2 sequence (looked up): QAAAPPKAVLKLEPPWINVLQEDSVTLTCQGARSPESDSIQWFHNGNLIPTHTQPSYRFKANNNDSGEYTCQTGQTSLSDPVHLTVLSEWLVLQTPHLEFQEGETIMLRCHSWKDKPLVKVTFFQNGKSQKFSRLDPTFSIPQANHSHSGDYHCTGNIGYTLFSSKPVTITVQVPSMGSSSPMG
How it is done: as §1

In assay [3] the target is T3, FcgRIIa H extracellular domain with C-terminal His tag (human, UniProt P12318 34-217).
T3 construct: extracellular domain; also called FcγRIIa H; FcγRIIa type H; not shown: His tag attached to the C terminus
T3 sequence (looked up): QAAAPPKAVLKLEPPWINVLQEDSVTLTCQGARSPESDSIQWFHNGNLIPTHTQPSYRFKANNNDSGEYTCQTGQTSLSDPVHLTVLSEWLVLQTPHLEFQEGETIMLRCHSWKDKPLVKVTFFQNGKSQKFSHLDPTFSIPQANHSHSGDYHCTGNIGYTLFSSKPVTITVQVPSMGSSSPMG
Here is the method:
as §1

The target in assay [4] is T4, FcgRIIb extracellular domain with C-terminal His tag (human, UniProt P31994 43-217).
T4 construct: extracellular domain; also called FcγRIIb; not shown: His tag attached to the C terminus
T4 sequence (looked up): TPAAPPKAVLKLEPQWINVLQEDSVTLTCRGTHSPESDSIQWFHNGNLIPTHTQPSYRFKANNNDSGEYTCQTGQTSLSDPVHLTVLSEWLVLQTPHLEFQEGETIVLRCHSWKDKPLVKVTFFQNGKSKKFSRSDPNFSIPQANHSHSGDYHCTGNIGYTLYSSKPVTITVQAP
Here is the method:
as §1

In assay [5] the target is T5, FcgRIIIa F extracellular domain with C-terminal His tag (human, UniProt P08637 17-208).
T5 construct: extracellular domain; also called FcγRIIIa F; FcγRIIIa (F158); not shown: His tag attached to the C terminus
T5 sequence (P08637 17-208): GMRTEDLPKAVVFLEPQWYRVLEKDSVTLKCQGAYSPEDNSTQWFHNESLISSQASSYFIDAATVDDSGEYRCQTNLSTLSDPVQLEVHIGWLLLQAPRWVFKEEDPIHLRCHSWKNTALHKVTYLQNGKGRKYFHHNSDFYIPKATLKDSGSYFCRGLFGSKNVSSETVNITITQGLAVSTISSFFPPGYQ
Here is the method:
as §1

For assay [6], the target named is T6, FcgRIIIa V extracellular domain with C-terminal His tag (human, UniProt P08637 17-208).
T6 construct: extracellular domain; also called FcγRIIIa V; FcγRIIIa (V158); not shown: His tag attached to the C terminus
T6 sequence (P08637 17-208 F176V): as the sequence (P08637 17-208) above, with F160V counted along it
Here is the method: as §1

In assay [7] the target is T5, FcgRIIIa F extracellular domain with …. How it is done:
as §1
This is another data set of the same source.

In assay [8] the target is T6, FcgRIIIa V extracellular domain with …. How it is done:
as §1
This is another data set of the same source.

B1: H240-Kn061/H240-Hl071/L73-k0 (antibody, human IgG1, kappa)
heavy 1: QDQLVQSGAEVKKPGASVKVSCKASGFNIKDTYIQWVRQAPGQGLEWMGRIDPLRKQTKYREKFEGRVTITADTSTNTAYMELSSLRSEDTAVYYCVRSGREFDYWGQGTLVTVSSASTKGPSVFPLAPSSKSTSGGTAALGCLVKDYFPEPVTVSWNSGALTSGVHTFPAVLQSSGLYSLSSVVTVPSSSLGTQTYICNVNHKPSNTKVDKKVEPKSCDKTHTCPPCPAPEYYWGPSVFLFPPKPKDTLMISRTPEVTCVVVDVSDEDPEVKFNWYVDGVEVHNAKTKPREEQYNATYRVVSVLTVLHQDWLNGKEYKCKVSNKALPAPIEKTISKAKGQPREPQVCTLPPSRDELTKNQVSLWCLVKGFYPSDIAVEWESNGQPENNYKTTPPVLDSDGSFFLYSKLTVDKSRWQQGNVFSCSVMHEALHNHYTQKSLSLSP
heavy 2: QDQLVQSGAEVKKPGASVKVSCKASGFNIKDTYIQWVRQAPGQGLEWMGRIDPLRKQTKYREKFEGRVTITADTSTNTAYMELSSLRSEDTAVYYCVRSGREFDYWGQGTLVTVSSASTKGPSVFPLAPSSKSTSGGTAALGCLVKDYFPEPVTVSWNSGALTSGVHTFPAVLQSSGLYSLSSVVTVPSSSLGTQTYICNVNHKPSNTKVDKKVEPKSCDKTHTCPPCPAPELLGGPSVFLFPPKPKDTLMISRTPEVTCVVVDVSHEDPEVKFNWYVDGVEVHNAKTKPREEQYNSTYRVVSVLTVLHQDWLNGKEYKCKVSNDALPMPIEETISKAKGQPREPQVYTLPPSRCELTKNQVSLSCAVKGFYPSDIAVEWESNGQPENNYKTTPPVLDSDGSFFLVSKLTVDKSRWQQGNVFSCSVMHEALHNHYTQKSLSLSP
light: DIQMTQSPSSLSASVGDRVTITCRASQDIHKYIAWYQQKPGQAPRLLIQYTSTLQPGVPSRFSGSGSGTDYTFTISSLQPEDIATYYCLQYEQLRTFGGGTKVEIKRTVAAPSVFIFPPSDEQLKSGTASVVCLLNNFYPREAKVQWKVDNALQSGNSQESVTEQDSKDSTYSLSSTLTLSKADYEKHKVYACEVTHQGLSSPVTKSFNRGEC
notes: Kn061: L234Y/L235Y/G236W/H268D/S298A; Hl071: K326D/A330M/K334E; also called H240-Kn061/H240-HI071/L73-k0
One may read the Kd as a measure of binding affinity in units of concentration. Low values mean a tighter complex, high ones a looser complex. Regarding B1, the Kd in assay [1] worked out at 0.14 nM; in assay [2], 350 nM; in assay [3], 280 nM; in assay [4] it was 1200 nM; in assay [5], 5.1 nM; in assay [6], 1.8 nM. Besides, the Kd was 5.1 nM in assay [7] and 1.8 nM in assay [8].

B2: H240-Kn132/H240-Hl071/L73-k0 (antibody, human IgG1, kappa)
heavy 1: QDQLVQSGAEVKKPGASVKVSCKASGFNIKDTYIQWVRQAPGQGLEWMGRIDPLRKQTKYREKFEGRVTITADTSTNTAYMELSSLRSEDTAVYYCVRSGREFDYWGQGTLVTVSSASTKGPSVFPLAPSSKSTSGGTAALGCLVKDYFPEPVTVSWNSGALTSGVHTFPAVLQSSGLYSLSSVVTVPSSSLGTQTYICNVNHKPSNTKVDKKVEPKSCDKTHTCPPCPAPELLGGPSVFLFPPKPKDTLMISRTPEVTCVVVDVSHEDPEVKFNWYVDGVEVHNAKTKPREEQYNSTYRVVSVLTVLHQDWLNGKEYKCKVSNDALPMPIEETISKAKGQPREPQVCTLPPSRDELTKNQVSLWCLVKGFYPSDIAVEWESNGQPENNYKTTPPVLDSDGSFFLYSKLTVDKSRWQQGNVFSCSVMHEALHNHYTQKSLSLSP
heavy 2: QDQLVQSGAEVKKPGASVKVSCKASGFNIKDTYIQWVRQAPGQGLEWMGRIDPLRKQTKYREKFEGRVTITADTSTNTAYMELSSLRSEDTAVYYCVRSGREFDYWGQGTLVTVSSASTKGPSVFPLAPSSKSTSGGTAALGCLVKDYFPEPVTVSWNSGALTSGVHTFPAVLQSSGLYSLSSVVTVPSSSLGTQTYICNVNHKPSNTKVDKKVEPKSCDKTHTCPPCPAPELLGGPSVFLFPPKPKDTLMISRTPEVTCVVVDVSHEDPEVKFNWYVDGVEVHNAKTKPREEQYNSTYRVVSVLTVLHQDWLNGKEYKCKVSNDALPMPIEETISKAKGQPREPQVYTLPPSRCELTKNQVSLSCAVKGFYPSDIAVEWESNGQPENNYKTTPPVLDSDGSFFLVSKLTVDKSRWQQGNVFSCSVMHEALHNHYTQKSLSLSP
light: DIQMTQSPSSLSASVGDRVTITCRASQDIHKYIAWYQQKPGQAPRLLIQYTSTLQPGVPSRFSGSGSGTDYTFTISSLQPEDIATYYCLQYEQLRTFGGGTKVEIKRTVAAPSVFIFPPSDEQLKSGTASVVCLLNNFYPREAKVQWKVDNALQSGNSQESVTEQDSKDSTYSLSSTLTLSKADYEKHKVYACEVTHQGLSSPVTKSFNRGEC
notes: K326D/A330M/K334E in both H chains (called homodimerized); also called H240-Kn132/H240-HI071/L73-k0
Consider B2, for which the Kd in assay [7] turned out to be 77 nM; in assay [8], 16 nM.

B3: H240-Kn061/H240-Hl134/L73-k0 (antibody, human IgG1, kappa)
heavy 1: QDQLVQSGAEVKKPGASVKVSCKASGFNIKDTYIQWVRQAPGQGLEWMGRIDPLRKQTKYREKFEGRVTITADTSTNTAYMELSSLRSEDTAVYYCVRSGREFDYWGQGTLVTVSSASTKGPSVFPLAPSSKSTSGGTAALGCLVKDYFPEPVTVSWNSGALTSGVHTFPAVLQSSGLYSLSSVVTVPSSSLGTQTYICNVNHKPSNTKVDKKVEPKSCDKTHTCPPCPAPEYYWGPSVFLFPPKPKDTLMISRTPEVTCVVVDVSDEDPEVKFNWYVDGVEVHNAKTKPREEQYNATYRVVSVLTVLHQDWLNGKEYKCKVSNKALPAPIEKTISKAKGQPREPQVCTLPPSRDELTKNQVSLWCLVKGFYPSDIAVEWESNGQPENNYKTTPPVLDSDGSFFLYSKLTVDKSRWQQGNVFSCSVMHEALHNHYTQKSLSLSP
heavy 2: QDQLVQSGAEVKKPGASVKVSCKASGFNIKDTYIQWVRQAPGQGLEWMGRIDPLRKQTKYREKFEGRVTITADTSTNTAYMELSSLRSEDTAVYYCVRSGREFDYWGQGTLVTVSSASTKGPSVFPLAPSSKSTSGGTAALGCLVKDYFPEPVTVSWNSGALTSGVHTFPAVLQSSGLYSLSSVVTVPSSSLGTQTYICNVNHKPSNTKVDKKVEPKSCDKTHTCPPCPAPEYYWGPSVFLFPPKPKDTLMISRTPEVTCVVVDVSDEDPEVKFNWYVDGVEVHNAKTKPREEQYNATYRVVSVLTVLHQDWLNGKEYKCKVSNKALPAPIEKTISKAKGQPREPQVYTLPPSRCELTKNQVSLSCAVKGFYPSDIAVEWESNGQPENNYKTTPPVLDSDGSFFLVSKLTVDKSRWQQGNVFSCSVMHEALHNHYTQKSLSLSP
light: DIQMTQSPSSLSASVGDRVTITCRASQDIHKYIAWYQQKPGQAPRLLIQYTSTLQPGVPSRFSGSGSGTDYTFTISSLQPEDIATYYCLQYEQLRTFGGGTKVEIKRTVAAPSVFIFPPSDEQLKSGTASVVCLLNNFYPREAKVQWKVDNALQSGNSQESVTEQDSKDSTYSLSSTLTLSKADYEKHKVYACEVTHQGLSSPVTKSFNRGEC
notes: L234Y/L235Y/G236W/H268D/S298A in both H chains (called homodimerized); also called H240-Kn061/H240-HI134/L73-k0
In the case of B3, the results for the Kd in assay [7] and in assay [8] were 660 nM and 86 nM, respectively.
